T1: GIP receptor (UniProt P48546 22-466)
T1 sequence (looked up): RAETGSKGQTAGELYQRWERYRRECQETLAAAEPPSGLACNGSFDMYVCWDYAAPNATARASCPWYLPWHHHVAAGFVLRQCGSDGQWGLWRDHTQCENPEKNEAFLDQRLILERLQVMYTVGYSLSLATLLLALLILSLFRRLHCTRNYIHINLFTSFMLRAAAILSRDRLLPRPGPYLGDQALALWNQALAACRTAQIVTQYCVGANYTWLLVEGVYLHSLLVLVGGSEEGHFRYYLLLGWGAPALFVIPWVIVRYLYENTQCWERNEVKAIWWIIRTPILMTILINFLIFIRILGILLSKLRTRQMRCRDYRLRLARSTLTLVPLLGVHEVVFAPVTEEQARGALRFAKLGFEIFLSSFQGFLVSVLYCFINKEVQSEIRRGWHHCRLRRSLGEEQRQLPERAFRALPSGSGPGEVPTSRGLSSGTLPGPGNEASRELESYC

B1: mt-162 (peptide)
peptide: Y[Aib]QGTFTSDYSYYLDEQAVKEFVNWLIAGGPSSGAPPPS-NH2
modifications: lactam 16-20; N-terminus assumed
SMILES: CC[C@H](C)[C@H](NC(=O)[C@H](CC(C)C)NC(=O)[C@H](Cc1c[nH]c2ccccc12)NC(=O)[C@H](CC(N)=O)NC(=O)[C@@H](NC(=O)[C@H](Cc1ccccc1)NC(=O)[C@H](CCC(=O)O)NC(=O)[C@@H]1CCCCNC(=O)CC[C@H](NC(=O)[C@H](CC(=O)O)NC(=O)[C@H](CC(C)C)NC(=O)[C@H](Cc2ccc(O)cc2)NC(=O)[C@H](Cc2ccc(O)cc2)NC(=O)[C@H](CO)NC(=O)[C@H](Cc2ccc(O)cc2)NC(=O)[C@H](CC(=O)O)NC(=O)[C@H](CO)NC(=O)[C@@H](NC(=O)[C@H](Cc2ccccc2)NC(=O)[C@@H](NC(=O)CNC(=O)[C@H](CCC(N)=O)NC(=O)C(C)(C)NC(=O)[C@@H](N)Cc2ccc(O)cc2)[C@@H](C)O)[C@@H](C)O)C(=O)N[C@@H](CCC(N)=O)C(=O)N[C@@H](C)C(=O)N[C@@H](C(C)C)C(=O)N1)C(C)C)C(=O)N[C@@H](C)C(=O)NCC(=O)NCC(=O)N1CCC[C@H]1C(=O)N[C@@H](CO)C(=O)N[C@@H](CO)C(=O)NCC(=O)N[C@@H](C)C(=O)N1CCC[C@H]1C(=O)N1CCC[C@H]1C(=O)N1CCC[C@H]1C(=O)N[C@@H](CO)C(N)=O
B2: mt-152 (peptide)
peptide: Y[Aib]QGTFTSDYSIYLDEQAAKEFVNWLLAGGPSSGAPPPS-NH2
modifications: lactam 16-20; N-terminus assumed
SMILES: CC[C@H](C)[C@H](NC(=O)[C@H](CO)NC(=O)[C@H](Cc1ccc(O)cc1)NC(=O)[C@H](CC(=O)O)NC(=O)[C@H](CO)NC(=O)[C@@H](NC(=O)[C@H](Cc1ccccc1)NC(=O)[C@@H](NC(=O)CNC(=O)[C@H](CCC(N)=O)NC(=O)C(C)(C)NC(=O)[C@@H](N)Cc1ccc(O)cc1)[C@@H](C)O)[C@@H](C)O)C(=O)N[C@@H](Cc1ccc(O)cc1)C(=O)N[C@@H](CC(C)C)C(=O)N[C@@H](CC(=O)O)C(=O)N[C@H]1CCC(=O)NCCCC[C@@H](C(=O)N[C@@H](CCC(=O)O)C(=O)N[C@@H](Cc2ccccc2)C(=O)N[C@H](C(=O)N[C@@H](CC(N)=O)C(=O)N[C@@H](Cc2c[nH]c3ccccc23)C(=O)N[C@@H](CC(C)C)C(=O)N[C@@H](CC(C)C)C(=O)N[C@@H](C)C(=O)NCC(=O)NCC(=O)N2CCC[C@H]2C(=O)N[C@@H](CO)C(=O)N[C@@H](CO)C(=O)NCC(=O)N[C@@H](C)C(=O)N2CCC[C@H]2C(=O)N2CCC[C@H]2C(=O)N2CCC[C@H]2C(=O)N[C@@H](CO)C(N)=O)C(C)C)NC(=O)[C@H](C)NC(=O)[C@H](C)NC(=O)[C@H](CCC(N)=O)NC1=O
B3: mt-156 (peptide)
peptide: YSQGTFTSDYSIYLDEQAAKEFVEWLLAGGPSSGAPPPS-NH2
modifications: lactam 20-24; N-terminus assumed
SMILES: CC[C@H](C)[C@H](NC(=O)[C@H](CO)NC(=O)[C@H](Cc1ccc(O)cc1)NC(=O)[C@H](CC(=O)O)NC(=O)[C@H](CO)NC(=O)[C@@H](NC(=O)[C@H](Cc1ccccc1)NC(=O)[C@@H](NC(=O)CNC(=O)[C@H](CCC(N)=O)NC(=O)[C@H](CO)NC(=O)[C@@H](N)Cc1ccc(O)cc1)[C@@H](C)O)[C@@H](C)O)C(=O)N[C@@H](Cc1ccc(O)cc1)C(=O)N[C@@H](CC(C)C)C(=O)N[C@@H](CC(=O)O)C(=O)N[C@@H](CCC(=O)O)C(=O)N[C@@H](CCC(N)=O)C(=O)N[C@@H](C)C(=O)N[C@@H](C)C(=O)N[C@H]1CCCCNC(=O)CC[C@@H](C(=O)N[C@@H](Cc2c[nH]c3ccccc23)C(=O)N[C@@H](CC(C)C)C(=O)N[C@@H](CC(C)C)C(=O)N[C@@H](C)C(=O)NCC(=O)NCC(=O)N2CCC[C@H]2C(=O)N[C@@H](CO)C(=O)N[C@@H](CO)C(=O)NCC(=O)N[C@@H](C)C(=O)N2CCC[C@H]2C(=O)N2CCC[C@H]2C(=O)N2CCC[C@H]2C(=O)N[C@@H](CO)C(N)=O)NC(=O)[C@H](C(C)C)NC(=O)[C@H](Cc2ccccc2)NC(=O)[C@H](CCC(=O)O)NC1=O
B4: mt-157 (peptide)
peptide: YSQGTFTSDYSIYLDEQAAKEFVEWLLKGGPSSGAPPPS-NH2
modifications: lactam 24-28; N-terminus assumed
SMILES: CC[C@H](C)[C@H](NC(=O)[C@H](CO)NC(=O)[C@H](Cc1ccc(O)cc1)NC(=O)[C@H](CC(=O)O)NC(=O)[C@H](CO)NC(=O)[C@@H](NC(=O)[C@H](Cc1ccccc1)NC(=O)[C@@H](NC(=O)CNC(=O)[C@H](CCC(N)=O)NC(=O)[C@H](CO)NC(=O)[C@@H](N)Cc1ccc(O)cc1)[C@@H](C)O)[C@@H](C)O)C(=O)N[C@@H](Cc1ccc(O)cc1)C(=O)N[C@@H](CC(C)C)C(=O)N[C@@H](CC(=O)O)C(=O)N[C@@H](CCC(=O)O)C(=O)N[C@@H](CCC(N)=O)C(=O)N[C@@H](C)C(=O)N[C@@H](C)C(=O)N[C@@H](CCCCN)C(=O)N[C@@H](CCC(=O)O)C(=O)N[C@@H](Cc1ccccc1)C(=O)N[C@H](C(=O)N[C@H]1CCC(=O)NCCCC[C@@H](C(=O)NCC(=O)NCC(=O)N2CCC[C@H]2C(=O)N[C@@H](CO)C(=O)N[C@@H](CO)C(=O)NCC(=O)N[C@@H](C)C(=O)N2CCC[C@H]2C(=O)N2CCC[C@H]2C(=O)N2CCC[C@H]2C(=O)N[C@@H](CO)C(N)=O)NC(=O)[C@H](CC(C)C)NC(=O)[C@H](CC(C)C)NC(=O)[C@H](Cc2c[nH]c3ccccc23)NC1=O)C(C)C
B5: mt-158 (peptide)
peptide: Y[Aib]QGTFTSDYSIYLDEQAAKEFVCWLLAGGPSSGAPPPS-NH2
modifications: lactam 16-20; N-terminus assumed
SMILES: CC[C@H](C)[C@H](NC(=O)[C@H](CO)NC(=O)[C@H](Cc1ccc(O)cc1)NC(=O)[C@H](CC(=O)O)NC(=O)[C@H](CO)NC(=O)[C@@H](NC(=O)[C@H](Cc1ccccc1)NC(=O)[C@@H](NC(=O)CNC(=O)[C@H](CCC(N)=O)NC(=O)C(C)(C)NC(=O)[C@@H](N)Cc1ccc(O)cc1)[C@@H](C)O)[C@@H](C)O)C(=O)N[C@@H](Cc1ccc(O)cc1)C(=O)N[C@@H](CC(C)C)C(=O)N[C@@H](CC(=O)O)C(=O)N[C@H]1CCC(=O)NCCCC[C@@H](C(=O)N[C@@H](CCC(=O)O)C(=O)N[C@@H](Cc2ccccc2)C(=O)N[C@H](C(=O)N[C@@H](CS)C(=O)N[C@@H](Cc2c[nH]c3ccccc23)C(=O)N[C@@H](CC(C)C)C(=O)N[C@@H](CC(C)C)C(=O)N[C@@H](C)C(=O)NCC(=O)NCC(=O)N2CCC[C@H]2C(=O)N[C@@H](CO)C(=O)N[C@@H](CO)C(=O)NCC(=O)N[C@@H](C)C(=O)N2CCC[C@H]2C(=O)N2CCC[C@H]2C(=O)N2CCC[C@H]2C(=O)N[C@@H](CO)C(N)=O)C(C)C)NC(=O)[C@H](C)NC(=O)[C@H](C)NC(=O)[C@H](CCC(N)=O)NC1=O
B6: mt-150 (peptide)
peptide: YSQGTFISDYSIYLDEQAAKEFVNWLLAGGPSSGAPPPS-NH2
modifications: lactam 16-20; N-terminus assumed
SMILES: CC[C@H](C)[C@H](NC(=O)[C@H](CO)NC(=O)[C@H](Cc1ccc(O)cc1)NC(=O)[C@H](CC(=O)O)NC(=O)[C@H](CO)NC(=O)[C@@H](NC(=O)[C@H](Cc1ccccc1)NC(=O)[C@@H](NC(=O)CNC(=O)[C@H](CCC(N)=O)NC(=O)[C@H](CO)NC(=O)[C@@H](N)Cc1ccc(O)cc1)[C@@H](C)O)[C@@H](C)CC)C(=O)N[C@@H](Cc1ccc(O)cc1)C(=O)N[C@@H](CC(C)C)C(=O)N[C@@H](CC(=O)O)C(=O)N[C@H]1CCC(=O)NCCCC[C@@H](C(=O)N[C@@H](CCC(=O)O)C(=O)N[C@@H](Cc2ccccc2)C(=O)N[C@H](C(=O)N[C@@H](CC(N)=O)C(=O)N[C@@H](Cc2c[nH]c3ccccc23)C(=O)N[C@@H](CC(C)C)C(=O)N[C@@H](CC(C)C)C(=O)N[C@@H](C)C(=O)NCC(=O)NCC(=O)N2CCC[C@H]2C(=O)N[C@@H](CO)C(=O)N[C@@H](CO)C(=O)NCC(=O)N[C@@H](C)C(=O)N2CCC[C@H]2C(=O)N2CCC[C@H]2C(=O)N2CCC[C@H]2C(=O)N[C@@H](CO)C(N)=O)C(C)C)NC(=O)[C@H](C)NC(=O)[C@H](C)NC(=O)[C@H](CCC(N)=O)NC1=O

Bridges are numbered along the chain shown (N, C = ends). Where no end group is shown, it is not given here. [ ]: non-standard residue; d: D form. Aib = CC(C)(N)C(=O)O

One experiment has as its target T1, GIP receptor. As to the kind of experiment: cell-based or functional assay.
Take B1: the EC50 (commonly the concentration that produces a half-maximal response) was 0.136 nM and the relative activity amounted to 25.7%.

Turning to B2, the “EC50” value came to 0.087 nM and the relative activity turned out to be 41.2%.

Consider B3, for which the “EC50” value stood at 0.919 nM and the relative activity turned out to be 4.41%.

Consider B4, for which the “EC50” value is 1.01 nM and the relative activity came to 4%.

Take B5: the “EC50” value stood at 0.174 nM and the relative activity stood at 17.8%.

On to B6, for which it took 0.232 nM to reach a half-maximal effect (EC50) and the relative activity was found to be 26.7%.

The target in a further experiment is glucagon receptor (UniProt P47871 26-477, limits assumed). As to the kind of experiment: cell-based or functional assay.
Sequence of glucagon receptor (P47871 26-477 limits assumed): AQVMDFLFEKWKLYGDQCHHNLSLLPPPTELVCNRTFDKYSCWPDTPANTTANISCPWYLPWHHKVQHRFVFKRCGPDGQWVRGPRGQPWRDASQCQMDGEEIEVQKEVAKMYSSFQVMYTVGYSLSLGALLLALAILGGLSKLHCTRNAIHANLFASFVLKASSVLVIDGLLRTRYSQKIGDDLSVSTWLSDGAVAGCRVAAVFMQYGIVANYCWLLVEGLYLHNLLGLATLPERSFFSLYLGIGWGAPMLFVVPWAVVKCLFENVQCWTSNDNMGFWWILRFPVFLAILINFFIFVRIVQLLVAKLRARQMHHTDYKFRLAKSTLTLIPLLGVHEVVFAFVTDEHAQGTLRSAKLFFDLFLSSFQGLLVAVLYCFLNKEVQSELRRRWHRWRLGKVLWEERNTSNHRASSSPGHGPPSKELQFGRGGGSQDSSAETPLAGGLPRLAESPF
Take B1: the “EC50” value stood at 7 nM and the relative activity stood at 0.97%.

With B2, the “EC50” value was 0.293 nM and the relative activity was determined as 36.5%.

Regarding B3, the “EC50” value worked out at 2.96 nM and the relative activity was 6.1%.

With B4, the “EC50” value is 2.62 nM and the relative activity came out at 6.92%.

As to B5, the “EC50” value was found to be 1.05 nM and the relative activity was determined as 14.9%.

Regarding B6, the “EC50” value amounted to 0.036 nM and the relative activity turned out to be 317%.

A further experiment addresses GLP-1 receptor (UniProt P43220 24-463, limits assumed). As to the kind of experiment: cell-based or functional assay.
With B1, the “EC50” value amounted to 0.011 nM and the relative activity is 109%.

Turning to B2, the “EC50” value worked out at 0.016 nM and the relative activity amounted to 169%.

Turning to B3, the “EC50” value came out at 0.246 nM and the relative activity was 12.2%.

For the molecule B4, the “EC50” value was 0.081 nM and the relative activity amounted to 37%.

Regarding B5, the “EC50” value is 0.034 nM and the relative activity amounted to 103%.

As to B6, the “EC50” value was determined as 3.47 nM and the relative activity worked out at 1.09%.

For the origin of these results see patent US20110166062A1 (INDIANA UNIVERSITY RESEARCH AND TECHNOLOGY, published 2011).
